{
  "source": "paper PMC7469494",
  "about": "(Autophagy, 2019)",
  "binders": {"B1": {"name": "Vac8[40–515] (domain or fragment, S. cerevisiae, UniProt P39968 40-515, looked up)", "chain": "QLDFYSGGPLKALTTLVYSDNLNLQRSAALAFAEITEKYVRQVSREVLEPILILLQSQDPQIQVAACAALGNLAVNNENKLLIVEMGGLEPLINQMMGDNVEVQCNAVGCITNLATRDDNKHKIATSGALIPLTKLAKSKHIRVQRNATGALLNMTHSEENRKELVNAGAVPVLVSLLSSTDPDVQYYCTTALSNIAVDEANRKKLAQTEPRLVSKLVSLMDSPSSRVKCQATLALRNLASDTSYQLEIVRAGGLPHLVKLIQSDSIPLVLASVACIRNISIHPLNEGLIVDAGFLKPLVRLLDYKDSEEIQCHAVSTLRNLAASSEKNRKEFFESGAVEKCKELALDSPVSVQSEISACFAILALADVSKLDLLEANILDALIPMTFSQNQEVSGNAAAALANLCSRVNNYTKIIEAWDRPNEGIRGFLIRFLKSDYATFEHIALWTILQLLESHNDKVEDLVKNDDDIINGVRK"}, "B2": {"name": "Vac8[40–515]^N62R (domain or fragment, S. cerevisiae, UniProt P39968 40-515, looked up)", "chain": "QLDFYSGGPLKALTTLVYSDNLRLQRSAALAFAEITEKYVRQVSREVLEPILILLQSQDPQIQVAACAALGNLAVNNENKLLIVEMGGLEPLINQMMGDNVEVQCNAVGCITNLATRDDNKHKIATSGALIPLTKLAKSKHIRVQRNATGALLNMTHSEENRKELVNAGAVPVLVSLLSSTDPDVQYYCTTALSNIAVDEANRKKLAQTEPRLVSKLVSLMDSPSSRVKCQATLALRNLASDTSYQLEIVRAGGLPHLVKLIQSDSIPLVLASVACIRNISIHPLNEGLIVDAGFLKPLVRLLDYKDSEEIQCHAVSTLRNLAASSEKNRKEFFESGAVEKCKELALDSPVSVQSEISACFAILALADVSKLDLLEANILDALIPMTFSQNQEVSGNAAAALANLCSRVNNYTKIIEAWDRPNEGIRGFLIRFLKSDYATFEHIALWTILQLLESHNDKVEDLVKNDDDIINGVRK"}, "B3": {"name": "Vac8[40–515]^N60R,N62R (domain or fragment, S. cerevisiae, UniProt P39968 40-515, looked up)", "chain": "QLDFYSGGPLKALTTLVYSDRLRLQRSAALAFAEITEKYVRQVSREVLEPILILLQSQDPQIQVAACAALGNLAVNNENKLLIVEMGGLEPLINQMMGDNVEVQCNAVGCITNLATRDDNKHKIATSGALIPLTKLAKSKHIRVQRNATGALLNMTHSEENRKELVNAGAVPVLVSLLSSTDPDVQYYCTTALSNIAVDEANRKKLAQTEPRLVSKLVSLMDSPSSRVKCQATLALRNLASDTSYQLEIVRAGGLPHLVKLIQSDSIPLVLASVACIRNISIHPLNEGLIVDAGFLKPLVRLLDYKDSEEIQCHAVSTLRNLAASSEKNRKEFFESGAVEKCKELALDSPVSVQSEISACFAILALADVSKLDLLEANILDALIPMTFSQNQEVSGNAAAALANLCSRVNNYTKIIEAWDRPNEGIRGFLIRFLKSDYATFEHIALWTILQLLESHNDKVEDLVKNDDDIINGVRK"}},
  "key": {"AUC": {"target": "the molecule itself", "assay": "AUC"}, "SEC [1]": {"target": "the molecule itself", "assay": "SEC"}, "Vac8[40–578]": {"target": "T1, Vac8[40–578] (S. cerevisiae, UniProt P39968 40-578)", "T1 sequence (looked up)": "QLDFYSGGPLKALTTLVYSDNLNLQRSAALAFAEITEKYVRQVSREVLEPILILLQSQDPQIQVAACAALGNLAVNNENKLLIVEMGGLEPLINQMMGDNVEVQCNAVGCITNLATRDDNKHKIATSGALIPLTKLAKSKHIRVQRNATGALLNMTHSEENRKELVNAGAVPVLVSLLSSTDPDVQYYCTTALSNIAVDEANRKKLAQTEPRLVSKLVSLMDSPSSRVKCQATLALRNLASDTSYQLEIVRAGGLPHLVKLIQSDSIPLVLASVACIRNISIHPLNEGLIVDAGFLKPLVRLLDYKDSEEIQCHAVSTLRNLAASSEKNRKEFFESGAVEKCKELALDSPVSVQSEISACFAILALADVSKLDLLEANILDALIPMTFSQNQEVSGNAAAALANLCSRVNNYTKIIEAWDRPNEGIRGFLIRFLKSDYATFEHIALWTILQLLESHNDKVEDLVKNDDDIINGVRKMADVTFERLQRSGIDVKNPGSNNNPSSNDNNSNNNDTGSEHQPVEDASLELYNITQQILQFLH", "assay": "SAXS"}, "Vac8[40–515]^N62R": {"target": "B2", "assay": "SEC"}, "Vac8[40–515]^N60R,N62R": {"target": "B3", "assay": "SEC"}, "Vac8[40–515]": {"target": "B1", "assay": "cross-linking"}, "Vac8[40–515]^A51R": {"target": "T2, Vac8[40–515]^A51R (S. cerevisiae, UniProt P39968 40-515, A51R)", "T2 sequence (looked up)": "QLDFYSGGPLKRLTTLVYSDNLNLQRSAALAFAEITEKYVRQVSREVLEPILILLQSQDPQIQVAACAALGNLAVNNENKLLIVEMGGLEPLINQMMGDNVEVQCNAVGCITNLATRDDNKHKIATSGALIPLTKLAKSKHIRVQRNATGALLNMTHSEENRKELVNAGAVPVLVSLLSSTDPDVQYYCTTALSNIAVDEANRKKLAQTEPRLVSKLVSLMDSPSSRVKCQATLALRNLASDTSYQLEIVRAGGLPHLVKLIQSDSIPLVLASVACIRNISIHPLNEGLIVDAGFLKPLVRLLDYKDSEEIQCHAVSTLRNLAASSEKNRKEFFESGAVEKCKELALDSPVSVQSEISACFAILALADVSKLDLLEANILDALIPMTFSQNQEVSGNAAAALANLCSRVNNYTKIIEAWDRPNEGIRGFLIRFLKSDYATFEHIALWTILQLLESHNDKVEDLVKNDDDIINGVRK", "assay": "cross-linking"}, "SEC [2]": {"target": "the molecule itself", "assay": "SEC", "remark": "listed apart in the source"}},
  "data": [
    {"binder": "Vac8[Δ19–33] (full-length Vac8 lacking the H1 helix, residues 19–33) (natural protein, S. cerevisiae, UniProt P39968 1-578, looked up) MGSCCSCLKDSSDEASVSYLEDKDQLDFYSGGPLKALTTLVYSDNLNLQRSAALAFAEITEKYVRQVSREVLEPILILLQSQDPQIQVAACAALGNLAVNNENKLLIVEMGGLEPLINQMMGDNVEVQCNAVGCITNLATRDDNKHKIATSGALIPLTKLAKSKHIRVQRNATGALLNMTHSEENRKELVNAGAVPVLVSLLSSTDPDVQYYCTTALSNIAVDEANRKKLAQTEPRLVSKLVSLMDSPSSRVKCQATLALRNLASDTSYQLEIVRAGGLPHLVKLIQSDSIPLVLASVACIRNISIHPLNEGLIVDAGFLKPLVRLLDYKDSEEIQCHAVSTLRNLAASSEKNRKEFFESGAVEKCKELALDSPVSVQSEISACFAILALADVSKLDLLEANILDALIPMTFSQNQEVSGNAAAALANLCSRVNNYTKIIEAWDRPNEGIRGFLIRFLKSDYATFEHIALWTILQLLESHNDKVEDLVKNDDDIINGVRKMADVTFERLQRSGIDVKNPGSNNNPSSNDNNSNNNDTGSEHQPVEDASLELYNITQQILQFLH", "values": [
      {"measurement": "binding result", "setting": "AUC", "result": "binds"}
    ]},
    {"binder": "B1", "values": [
      {"measurement": "binding result", "setting": "SEC [1]", "result": "binds"}
    ]},
    {"binder": "B2", "values": [
      {"measurement": "binding result", "setting": "SEC [1]", "result": "binds"}
    ]},
    {"binder": "tNvj1 (Nvj1 construct comprising residues 229–321) (domain or fragment, S. cerevisiae, UniProt P38881 229-321, looked up) NREKDCSSSSEVESQSKCRKESTAEPDSLSRDTRTTSSLKSSTSFPISFKGSIDLKSLNQPSSLLHIQVSPTKSSNLDAQVNTEQAYSQPFRY", "values": [
      {"measurement": "binding result", "setting": "Vac8[40–578]", "result": "binds"},
      {"measurement": "binding result", "setting": "Vac8[40–515]^N62R", "result": "binds"},
      {"measurement": "binding result", "setting": "Vac8[40–515]^N60R,N62R", "result": "binds"},
      {"measurement": "binding result", "setting": "Vac8[40–515]", "result": "binds"},
      {"measurement": "binding result", "setting": "Vac8[40–515]^A51R", "result": "binds"}
    ]},
    {"binder": "B3", "values": [
      {"measurement": "binding result", "setting": "SEC [2]", "result": "binds"}
    ]}
  ]
}
